Measured values as given in patent US20170218091A1 (AbbVie / Abbott, published 2017).

Target: T1, Human recombinant TNFα (rhTNFα) (human, UniProt P01375 77-233)
T1 construct: Soluble recombinant cytokine added to L929 cells; also called huTNFα; human TNF
Assay: SPR (BIAcore); antibody captured on a goat anti-huIgG Fc surface, huTNF injected at 25 nM

T1 sequence (P01375 77-233 limits assumed): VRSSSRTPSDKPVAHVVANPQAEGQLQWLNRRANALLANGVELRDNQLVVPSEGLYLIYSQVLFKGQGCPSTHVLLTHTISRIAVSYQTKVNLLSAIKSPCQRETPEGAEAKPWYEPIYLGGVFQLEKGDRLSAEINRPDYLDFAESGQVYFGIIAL

Stoichiometry: 2
B1: AB441 (antibody, V domains shown)
VH: EVQLVQSGAEVKKPGASVKVSCKASGYTFANYGIIWVRQAPGQGLEWMGWINTYTGKPTYAQKFQGRVTMTTDTSTSTAYMELSSLRSEDTAVYYCARKLFTTMDVTDNAMDYWGQGTTVTVSS
VL: DIQMTQSPSSLSASVGDRVTITCRASQDISQYLNWYQQKPGKAPKLLIYYTSRLQSGVPSRFSGSGSGTDFTLTISSLQPEDFATYFCQQGNTWPPTFGQGTKLEIKR
